# Data as given in paper PMC7954794, “Protein context shapes the specificity of SH3 domain-mediated interactions in vivo” (Nature Communications, 2021).
# Tests used:
# [1] = system: PPIs identified as affected by the SH3 domain deletions; assay: Liquid DHFR-PCA low-throughput validation of PPIs affected by SH3 deletion (Fig. S1D-E); assay type: cell-based, Saccharomyces cerevisiae; settings: label = prey, liquid DHFR-PCA, prey _1 = lost, _2 = gained in screen
# Protocol: Liquid DHFR-PCA low-throughput experiments were performed to validate the PPIs identified as affected by the SH3 domain deletions in the high-throughput solid DHFR-PCA screen (256 PPIs weaker or lost and 116 PPIs stronger or gained following domain deletions). Mating and the diploid selection were performed as described for the large-scale experiment, with the exception that the plates were in 384 formats. Following the second diploid selection, diploid cells were inoculated in a 96 v-shaped well plate using a robotically manipulated 96 pin tool in a synthetic complete medium with MSG at pH 6.0 with NAT and HPH. After 48 h of growth, optical density (OD) was read using a TECAN Infinite F200 Pro, and dilutions to 1 OD in sterile nanopure water were prepared. Cells were then diluted to 0.1 OD by combining 25 µl of cell suspension at OD = 1 and 225 µl of PCA selection media without agar in a 96-wells plate. Plates were incubated at 30 °C in a TECAN Infinite M Nano and OD was monitored each 15 min for 72 h.
# [2] = system: growth of yeast strains under 51 stress conditions; assay: Growth assays in 51 stress conditions (Fig. 1E-F, S2D, S5B); assay type: cell-based, Saccharomyces cerevisiae; design: key to Growth (Fig. S2D) / growth of ABP1 SH3-swapped strains in stress condition: log2 colony size, average of median per strain (growth score); settings: ABP1 SH3-swapped strains
# Protocol: All WT, SH3-deleted, KO (except for CDC25 which is the only essential SH3-containing gene in yeast), ABP1 SH3-swapped, and SLA1 SH3-shuffled strains were grown on omnitrays in 1536 formats and robotically manipulated with a pin tool (the DHFR F[1,2] bait strains were used except for the KO strains). Each strain was randomly positioned in 6 replicates per plate and two plates per condition were performed, for 12 replicates per strain in total. A border of two rows and two columns of WT strains (BY4741) around the plate was used to remove border effects. Strains were grown on YPD media for two days at 30 °C. They were then replicated on 51 different media that are described in the Supplementary Table 3 and were incubated at 37 °C in a spImager custom platform with images acquired every two hours for four days. The colony sizes from plate pictures were also measured with the R package “Gitter” and the output was manually inspected. Positions with an abnormality in colony circularity were removed. The colony sizes after 74 h of incubation at 37 °C were log2 transformed and used for the analyses. First, the differences between the two plate replicates were corrected to remove plate effects. The median colony size was calculated for each strain per plate. Strains with a difference in their median colony size of more than two between the two plate replicates were removed. Finally, the average of the median colony size was calculated for each strain per condition (growth score).
molecule,measurement,setting,value
"YGR037C_2 (protein, UniProt P31787 1-87, looked up) Acyl-CoA-binding protein: MVSQLFEEKAKAVNELPTKPSTDELLELYALYKQATVGDNDKEKPGIFNMKDRYKWEAWENLKGKSQEDAEKEYIALVDQLIAKYSS",Ratio (Deletedscore / WTscore),[1]; bait LSB3,1.675
same,Ratio (Deletedscore / WTscore),[1]; bait MYO3,1.004
same,Ratio (Deletedscore / WTscore),[1]; bait MYO5,0.9102
"ABP1 WT (protein, UniProt P15891 2-592, looked up) Actin-binding protein: ALEPIDYTTHSREIDAEYLKIVRGSDPDTTWLIISPNAKKEYEPESTGSSFHDFLQLFDETKVQYGLARVSPPGSDVEKIIIIGWCPDSAPLKTRASFAANFAAVANNLFKGYHVQVTARDEDDLDENELLMKISNAAGARYSIQTSSKQQGKASTPPVKKSFTPSKSPAPVSKKEPVKTPSPAPAAKISSRVNDNNDDDDWNEPELKERDFDQAPLKPNQSSYKPIGKIDLQKVIAEEKAKEDPRLVQKPTAAGSKIDPSSDIANLKNESKLKRDSEFNSFLGTTKPPSMTESSLKNDDDKVIKGFRNEKSPAQLWAERKAKQNSGNAETKAEAPKPEVPEDEPEGEPDVKDLKSKFEGLAASEKEEEEMENKFAPPPKKSEPTIISPKPFSKPQEPVKAEEAEQPKTDYKKIGNPLPGMHIEADNEEEPEENDDDWDDDEDEAAQPPLPSRNVASGAPVQKEEPEQEEIAPSLPSRNSIPAPKQEEAPEQAPEEEIEEEAEEAAPQLPSRSSAAPPPPPRRATPEKKPKENPWATAEYDYDAAEDNELTFVENDKIINIEFVDDDWWLGELEKDGSKGLFPSNYVSLGN",Growth (Fig. S2D),[2]; Bathophenanthroline.0.1uM,10.7779
same,Growth (Fig. S2D),[2]; Bathophenanthroline.10uM,10.6544
same,Growth (Fig. S2D),[2]; Bathophenanthroline.1uM,10.7233
same,Growth (Fig. S2D),[2]; CaCl2.100mM,10.745
same,Growth (Fig. S2D),[2]; CaCl2.250mM,10.6724
same,Growth (Fig. S2D),[2]; CaCl2.500mM,10.224
same,Growth (Fig. S2D),[2]; Caffein.10mM,9.987
same,Growth (Fig. S2D),[2]; Caffein.2mM,10.9881
same,Growth (Fig. S2D),[2]; CdCl2.100uM,9.742
same,Growth (Fig. S2D),[2]; CdCl2.10uM,10.8471
same,Growth (Fig. S2D),[2]; CdCl2.50uM,10.1808
same,Growth (Fig. S2D),[2]; CuSO4.1mM,10.5746
same,Growth (Fig. S2D),[2]; CuSO4.5mM,8.442
same,Growth (Fig. S2D),[2]; Cycloheximide.0.05.uM,11.0561
same,Growth (Fig. S2D),[2]; Cycloheximide.0.2.uM,10.6665
same,Growth (Fig. S2D),[2]; Cycloheximide.0.5.uM,10.4823
same,Growth (Fig. S2D),[2]; DMSO.2.,10.9822
same,Growth (Fig. S2D),[2]; DMSO.6.,9.9755
same,Growth (Fig. S2D),[2]; DMSO.8.,9.381
same,Growth (Fig. S2D),[2]; Ethanol.2.,10.76
same,Growth (Fig. S2D),[2]; Ethanol.6.,10.427
same,Growth (Fig. S2D),[2]; Ethanol.8.,10.4864
same,Growth (Fig. S2D),[2]; Galactose.2.,10.7856
same,Growth (Fig. S2D),[2]; Glycerol.2.,10.3292
same,Growth (Fig. S2D),[2]; Hydroxyurea.25mM,10.7632
same,Growth (Fig. S2D),[2]; Hygromycin.190uM,10.9263
same,Growth (Fig. S2D),[2]; Hygromycin.19uM,10.9545
same,Growth (Fig. S2D),[2]; Hygromycin.95uM,10.9494
same,Growth (Fig. S2D),[2]; MMS.0.004.,10.9625
same,Growth (Fig. S2D),[2]; MMS.0.02.,10.8338
same,Growth (Fig. S2D),[2]; MMS.0.04.,10.264
same,Growth (Fig. S2D),[2]; Menadione.100uM,10.4792
same,Growth (Fig. S2D),[2]; Menadione.200uM,10.398
same,Growth (Fig. S2D),[2]; Menadione.50uM,10.8403
same,Growth (Fig. S2D),[2]; NaCl.0.25M,10.7336
same,Growth (Fig. S2D),[2]; NaCl.1M,10.1964
same,Growth (Fig. S2D),[2]; Nitroquinoline.10uM,10.6457
same,Growth (Fig. S2D),[2]; Nitroquinoline.50uM,10.6448
same,Growth (Fig. S2D),[2]; Nystatin.0.01uM,10.9455
same,Growth (Fig. S2D),[2]; Nystatin.0.1uM,11.0177
same,Growth (Fig. S2D),[2]; Raffinose.2.,10.9059
same,Growth (Fig. S2D),[2]; Rapamycin.10nM,9.962
same,Growth (Fig. S2D),[2]; Rapamycin.50nM,9.216
same,Growth (Fig. S2D),[2]; SC.pH3,10.4509
same,Growth (Fig. S2D),[2]; SC.pH6,10.9947
same,Growth (Fig. S2D),[2]; SDS.0.01.,10.9398
same,Growth (Fig. S2D),[2]; SDS.0.02.,10.9447
same,Growth (Fig. S2D),[2]; SDS.0.05.,10.807
same,Growth (Fig. S2D),[2]; Sorbitol.10mM,10.9819
same,Growth (Fig. S2D),[2]; Sorbitol.1mM,10.9741
same,Growth (Fig. S2D),[2]; Sorbitol.5mM,10.8941
"YOR081C_2 (protein, UniProt Q12043 1-749, looked up) Triacylglycerol lipase 5: MSNTLPVTEFLLSKYYELSNTPATDSSSLFKWLYHKTLSRKQLLISDLSSQKKHAISYDQWNDIASRLDDLTGLSEWKTIDESSLYNYKLLQDLTIRMRHLRTTHDYHRLLYLIRTKWVRNLGNMNNVNLYRHSHTGTKQIIHDYLEESQAVLTALIHQSNMNDHYLLGILQQTRRNIGRTALVLSGGSTFGLFHIGVLAALFESDLMPKVISGSSAGAIVASIFCVHTTQEIPSLLTNVLNMEFNIFNDDNSKSPNENLLIKISRFCQNGTWFNNQPLINTMLSFLGNLTFREAYNKTGKILNITVSPASIYEQPKLLNNLTAPNVLIWSAVCASCSLPGVFPSTPLFEKDPHTGKIKEWGATNLHLSNMKFMDGSVDNDMPISRLSEMFNVDHIIACQVNIHVFPLLKFSNTCVGGEIEKEITARFRNQVTKIFKFFSDETIHFLDILKELEFHPYLMTKLKHLFLQQYSGNVTILPDLSMVGQFHEVLKNPSQLFLLHQTTLGARATWPKISMIQNNCGQEFALDKAITFLKEKIIISSSIKNPLQFYQPRFSEQIKSLSIMDADLPGVDLEESSSNSLSIIKSPNKTAAPGRFPLQPLPSPSSTFNKRKMDMLSPSPSPSTSPQRSKSSFTQQGTRQKANSLSFAIGASSLRLKKSPLKVPSRPQFKKRSSYYNQNMSAEMRKNRKKSGTISSYDVQTNSEDFPIPAIENGSFDNTLFNPSRFPMDAMSAATNDNFMNNSDIFQN",Ratio (Deletedscore / WTscore),[1]; bait LSB3,1.383
"YFR004W_2 (protein, UniProt P43588 1-306, looked up) Ubiquitin carboxyl-terminal …: MERLQRLMMNSKVGSADTGRDDTKETVYISSIALLKMLKHGRAGVPMEVMGLMLGEFVDDYTVNVVDVFAMPQSGTGVSVEAVDDVFQAKMMDMLKQTGRDQMVVGWYHSHPGFGCWLSSVDVNTQKSFEQLNSRAVAVVVDPIQSVKGKVVIDAFRLIDTGALINNLEPRQTTSNTGLLNKANIQALIHGLNRHYYSLNIDYHKTAKETKMLMNLHKEQWQSGLKMYDYEEKEESNLAATKSMVKIAEQYSKRIEEEKELTEEELKTRYVGRQDPKKHLSETADETLENNIVSVLTAGVNSVAIK",Ratio (Deletedscore / WTscore),[1]; bait ABP1,1.111
same,Ratio (Deletedscore / WTscore),[1]; bait LSB3,1.521
same,Ratio (Deletedscore / WTscore),[1]; bait MYO3,1.308
same,Ratio (Deletedscore / WTscore),[1]; bait MYO5,1.194
same,Ratio (Deletedscore / WTscore),[1]; bait RVS167,1.454
"YOR039W_2 (protein, UniProt P38930 1-258, looked up) Casein kinase II subunit beta': MGSRSENVGTVTREGSRVEQDDVLMDDDSDSSEYVDMWIDLFLGRKGHEYFCDVDPEYITDRFNLMNLQKTVSKFSYVVQYIVDDLDDSILENMTHARLEQLESDSRKLYGLIHARYIITIKGLQKMYAKYKEADFGRCPRVYCNLQQLLPVGLHDIPGIDCVKLYCPSCEDLYIPKSSRHSSIDGAYFGTSFPGMFLQAFPDMVPKHPTKRYVPKIFGFELHKQAQLTRWQELQRLKLVEKLESKDVDLTKSGGFKT",Ratio (Deletedscore / WTscore),[1]; bait LSB3,1.116
"YPL246C_2 (protein, UniProt Q12270 1-262, looked up) Rhomboid-type serine protease …: MNWKSYVFPGGHPPAALTTGLVVFLTAIYLLSFIFALREDLSLAPESLFKLQMSRLSLYPLIHLSLPHLLFNVLAIWAPLNLFEETHGTVYTGVFLNLSALFAGILYCLLGKLLYPEALVAGASGWCFTLFAYYSFKESQIRPRTRIFRTDYSIPTLYTPLVLLVAIAVVIPGSSFWGHFFGLCVGYAIGYKESWFNKITPPGWIITKIEKSLDGLIRLIPWGIKYYRDEDIDRTKDYEPLMSTETPLPLHNDNSGTVLGTA",Ratio (Deletedscore / WTscore),[1]; bait ABP1,1.339
same,Ratio (Deletedscore / WTscore),[1]; bait LSB3,1.364
same,Ratio (Deletedscore / WTscore),[1]; bait SHO1,1.171
